Measurements published in publication PMC9338922, “DltC acts as an interaction hub for AcpS, DltA and DltB in the teichoic acid D-alanylation pathway of Lactiplantibacillus plantarum” (Scientific Reports, 2022).

Legend:
[1] = molecular target: L. plantarum DltC1, full-length wild type, C-terminal His6 tag (Lactiplantibacillus plantarum) (UniProt Q88VM8); assay: crystal structure; AcpS/DltC1 complex at 4.8 mg/ml, sitting-drop vapor diffusion at 293 K, 20% PEG3350 and 0.2 M sodium malonate; 1.88 Å
[2] = molecular target: the molecule itself; assay: as above
[3] = molecular target: T1, DltA-∆P-loop mutant, C-terminal His6 tag (Lactiplantibacillus plantarum, UniProt Q88VM6 1-508, missing the loop region comprised between T152 and K160); assay: MST
T1 sequence: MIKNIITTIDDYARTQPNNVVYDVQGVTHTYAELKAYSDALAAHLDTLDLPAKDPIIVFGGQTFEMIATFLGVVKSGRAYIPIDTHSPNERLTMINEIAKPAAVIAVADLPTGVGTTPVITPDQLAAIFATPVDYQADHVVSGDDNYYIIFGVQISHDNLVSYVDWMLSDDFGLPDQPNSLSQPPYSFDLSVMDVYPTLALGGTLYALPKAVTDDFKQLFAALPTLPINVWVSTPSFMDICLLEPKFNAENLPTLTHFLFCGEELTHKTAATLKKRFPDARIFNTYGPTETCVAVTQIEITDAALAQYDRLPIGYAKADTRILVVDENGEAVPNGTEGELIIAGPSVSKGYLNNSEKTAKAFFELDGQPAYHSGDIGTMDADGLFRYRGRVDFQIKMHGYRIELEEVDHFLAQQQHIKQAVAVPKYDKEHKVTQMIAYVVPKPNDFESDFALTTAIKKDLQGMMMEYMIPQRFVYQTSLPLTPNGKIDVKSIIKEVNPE

[4] = molecular target: T2, L. plantarum DltA, full-length wild type, C-terminal His6 tag (Lactiplantibacillus plantarum, UniProt Q88VM6 1-508); assay: MST; one protein labelled with NHS red fluorescent dye (RED-NHS Monolith NT kit); Hepes 25 mM pH 7.5, NaCl 300 mM, Tween20 0.05%; 22 °C; triplicate; settings: both partners purified
T2 construct: DltA (D-alanine-D-alanyl carrier protein ligase) of Lactiplantibacillus plantarum, full-length wild type, 508 residues, cloned in pT7-7; the C-terminal domain is not visible; also called LpDltA; D-alanine-D-alanyl carrier protein ligase; source: E. coli BL21 (DE3), purified (Ni-NTA, SEC)
T2 sequence (looked up): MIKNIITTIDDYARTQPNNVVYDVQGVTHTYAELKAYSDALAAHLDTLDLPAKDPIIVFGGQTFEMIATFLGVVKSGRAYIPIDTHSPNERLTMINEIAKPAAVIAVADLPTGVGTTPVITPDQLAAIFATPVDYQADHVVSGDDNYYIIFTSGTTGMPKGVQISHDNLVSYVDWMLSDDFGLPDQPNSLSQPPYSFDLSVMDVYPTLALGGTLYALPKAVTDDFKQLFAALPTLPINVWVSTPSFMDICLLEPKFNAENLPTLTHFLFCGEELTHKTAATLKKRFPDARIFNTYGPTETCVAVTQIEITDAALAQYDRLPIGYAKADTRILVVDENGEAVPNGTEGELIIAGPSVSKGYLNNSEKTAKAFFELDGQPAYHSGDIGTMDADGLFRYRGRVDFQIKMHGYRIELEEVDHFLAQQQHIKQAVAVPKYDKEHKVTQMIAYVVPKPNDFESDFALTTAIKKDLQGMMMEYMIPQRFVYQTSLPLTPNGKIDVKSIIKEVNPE

[5] = molecular target: T3, DltA-∆P-loop mutant, C-terminal His6 tag (Lactiplantibacillus plantarum, UniProt Q88VM6 1-508, missing the loop region comprised between T152 and K160); assay: as above; settings: both partners purified
T3 construct: DltA of Lactiplantibacillus plantarum, full length but missing the P-loop region comprised between Thr152 and Lys160, cloned in pT7-7; source: E. coli BL21 (DE3), purified (Ni-NTA, SEC)
T3 sequence (looked up): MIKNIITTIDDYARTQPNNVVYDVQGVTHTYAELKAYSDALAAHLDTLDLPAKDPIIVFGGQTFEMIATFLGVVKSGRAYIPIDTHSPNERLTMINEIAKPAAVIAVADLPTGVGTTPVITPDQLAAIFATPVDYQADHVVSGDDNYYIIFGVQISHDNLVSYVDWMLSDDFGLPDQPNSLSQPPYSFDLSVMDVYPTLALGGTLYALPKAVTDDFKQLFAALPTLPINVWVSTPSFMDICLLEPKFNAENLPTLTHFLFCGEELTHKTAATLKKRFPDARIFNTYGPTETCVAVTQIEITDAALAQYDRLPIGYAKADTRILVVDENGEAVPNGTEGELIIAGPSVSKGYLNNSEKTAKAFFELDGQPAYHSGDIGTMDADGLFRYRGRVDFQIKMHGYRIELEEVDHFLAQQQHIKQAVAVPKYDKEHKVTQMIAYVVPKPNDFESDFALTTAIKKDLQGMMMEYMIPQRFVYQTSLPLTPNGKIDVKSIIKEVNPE

[6] = molecular target: T4, L. plantarum AcpS, full-length wild type, C-terminal His6 tag (Lactiplantibacillus plantarum, UniProt Q88Z44 1-120); assay: SEC; purified AcpS mixed with apo- or holo-DltC1, mixture subjected to size exclusion chromatography; settings: both partners purified
T4 construct: AcpS (acyl-carrier protein synthase) of Lactiplantibacillus plantarum, full-length wild type, cloned in pT7-7 (NdeI/PstI); AcpS is a trimer in the crystal structure of the complex (PDB 7R49); also called LpAcpS; acyl-carrier protein synthase; source: E. coli BL21 (DE3), purified (Ni-NTA, Superdex 200 SEC)
T4 sequence (looked up): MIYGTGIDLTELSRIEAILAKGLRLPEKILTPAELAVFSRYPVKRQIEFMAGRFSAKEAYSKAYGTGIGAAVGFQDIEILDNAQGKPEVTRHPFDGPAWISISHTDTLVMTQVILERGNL

B1: L. plantarum AcpS, full-length wild type, untagged (enzyme, Lactiplantibacillus plantarum, UniProt Q88Z44 1-120, looked up)
chain: MIYGTGIDLTELSRIEAILAKGLRLPEKILTPAELAVFSRYPVKRQIEFMAGRFSAKEAYSKAYGTGIGAAVGFQDIEILDNAQGKPEVTRHPFDGPAWISISHTDTLVMTQVILERGNL
notes: AcpS of Lactiplantibacillus plantarum, full-length wild type, pT7-7 with a stop codon before the TEV cleavage site and the His6 tag; also called untagged LpAcpS^WT; untagged AcpS; source: E. coli BL21 (DE3); lysate mixed with Ni-NTA-purified DltC1, complex purified (Ni-NTA, Superdex 200 SEC)
stoichiometry N (AcpS:DltC1 (3:3)) [1]: 1
stoichiometry N [2]: 3

B2: holo-DltC1 (DltC1 fully modified by phosphopantetheine), C-terminal His6 tag (natural protein, Lactiplantibacillus plantarum, UniProt Q88VM8 1-80, looked up)
chain: MTMDDTKATVLSILADLTGEDVSSNMDVNLFDEGILDSMGSVQLLLELQNQLGIEVPVSEFQRSEWDTPAKIVAKVENLQ
modifications: phosphopantetheine (Ppant) covalently attached to Ser38, confirmed by mass spectrometry
notes: DltC1 (nc8_1734) of Lactiplantibacillus plantarum, wild type, co-expressed with wild type AcpS from pRSF-Duet1; also called Ppant-DltC1; Ppant-modified DltC; source: E. coli BL21 (DE3), co-expressed with LpAcpS from pRSF-Duet1, purified (Ni-NTA, SEC); 15N-labelled in M9 minimal media for NMR
Kd [3]: 0.18 µM
Kd [4]: 5.74 µM
binding result [5]: binds

B3: apo-DltC1-S38A, C-terminal His6 tag (natural protein, Lactiplantibacillus plantarum, UniProt Q88VM8 1-80, looked up)
chain: MTMDDTKATVLSILADLTGEDVSSNMDVNLFDEGILDAMGSVQLLLELQNQLGIEVPVSEFQRSEWDTPAKIVAKVENLQ
notes: DltC1 (nc8_1734) of Lactiplantibacillus plantarum, full length, catalytic Ser38 mutated to Ala, cloned in pET-28a(+); source: E. coli BL21 (DE3)-RIPL, purified (Ni-NTA, SEC); 15N- or 13C,15N-labelled in M9 minimal media for NMR
binding result [6]: binds
Kd [4]: 8.89 µM
binding result [5]: binds
